Entries after “also recorded” stand apart in the source; their conditions may differ.
Assays:
[1] = test system: NS2-3 non-structural proteins of BVDV; experiment: Immunocytometric analysis of HEK 293A cells transfected with BVDV antigens; format: binding; conditions: 10 μg/ml antibody
Procedure: Additionally, binding of the chimeric recombinant antibodies to BVDV antigens was evaluated by immunocytometric analysis of transfected human embryonic kidney (HEK) 293A cells (Invitrogen), as previously described (see, e.g., Njongmeta et al. (2012) Vaccine 30:1624-1635). Briefly, HEK 293A monolayers grown in 6-well tissue culture plates were transfected with 2 μg/well of plasmid (pcDNA3.3, Invitrogen) encoding BVDV antigens (N^pro, E2, or non-structural proteins NS2-3) using Lipofectamine 2000 reagent (Invitrogen), and incubated for 48 hr at 37° C. with 5% CO2. The monolayers were fixed with ice-cold 100% methanol for 10 minutes, rinsed with PBS, and after blocking for 1 hr with PBS containing 5% fetal bovine serum (blocking buffer), the monolayers were incubated at room temperature for 1 hr with 10 μg/ml of a mouse anti-FLAG M2-alkaline phosphatase (AP)-conjugate (Sigma) in blocking buffer or 10 μg/ml of the chimeric recombinant antibodies (H12 or B8). […] Following washes in blocking buffer, the AP activity in all the wells was detected using Fast Red AS-MX substrate (Sigma). […]

Mouse NFS-60 cells = experiment: Proliferation assay on mouse NFS-60 cells (AlamarBlue); format: cell-based; conditions: 72 hours
Procedure: Mouse NFS-60 cells were obtained from American Type Culture Collection (ATCC), VA, and cultured in RPMI-1640 medium supplemented with 10% fetal bovine serum (FBS), 0.05 mM 2-mercapoethanol and 62 ng/ml human macrophage colony stimulating factor (M-CSF). For proliferation assay, mouse NFS-60 cells were washed three times with RPMI-1640 medium and resuspended in RPMI-1640 medium with 10% FBS and 0.05 mM 2-mercapoethanol at a density of 1.5×10^5 cells/ml. In 96-well plates, 100 μl of cell suspension was added into each well, followed by the addition of varied concentrations of bGCSF, BLV1H12 antibody, and the immunoglobulin constructs described herein, Equal volume of PBS buffer was added into the control wells. The plates were incubated at 37° C. in a 5% CO2 incubator for 72 hours. Cells were then treated with AlamarBlue (Invitrogen) ( 1/10 volume of cell suspension) for 4 hours at 37° C. Fluorescence at 595 nm for each well was read to indicate the cell viability.

Human mPB CD34+ cells = experiment: Proliferative activity on human granulocyte progenitors (flow cytometry); format: cell-based; conditions: 7 days
Procedure: Human mPB CD34^+ cells were purchased from AllCells. Cells were resuspended in HSC expansion medium (StemSpan SFEM, StemCell Technologies) supplemented with 1× antibiotics and the following recombinant human cytokines thrombopoietin, IL6, Flt3 ligand, and stem cell factor (100 ng/mL, R & D Systems), then plated in 96-well plates (1000 cells per well), with varied concentrations of BLV1H12-bGCSF fusion antibodies. Cells were cultured for 7 days at 37° C. in a 5% CO2 incubator, then analyzed by flow cytometry to measure cell number and expression of CD45ra and CD41. Cells were stained in staining medium (HBSS supplemented with 2% FBS and 2 mM EDTA) at 4° C. for 1 h with PECy7 anti-CD45ra and eFluor 450 anti-CD41 (eBiosciences), then washed with staining medium and analyzed. Multicolor analysis for cell phenotyping was performed on a LSR II flow cytometer (Becton Dickinson). FIGS. 10A-10E and Tables 9-10 show the human granulocyte progenitor cell proliferative activities of the Ab-GCSF fusion antibodies.

mice neutrophils = experiment: Neutrophils counts in mice; format: in vivo; conditions: mice blood, 10th day post-injection, neutrophils among white blood cells
Procedure: On the 10th day after injection of BLV1H12-bGCSF fusion antibodies into mice for PK study, blood samples were drawn from the mice and stained using the Diff Quick Staining Kit (Thermo Fisher Scientific, IL). Neutrophils and white blood cells were counted under microscope and the percentages of neutrophils were analyzed. FIGS. 12A-12B and Table 12 show proliferative activities of BLV1H12-bGCSF fusion antibodies on mice neutrophils that are blood stained and counted at the 10th day post-injection.

[2] = Pharmacokinetics of BLV1H12-bGCSF fusion antibodies in mice; format: in vivo; conditions: BALB/c mice, 70 μg injected
Procedure: For PK study in mice, 70 μg of the immunoglobulin constructs described herein were injected into 3 BALB/c mice per group. Blood samples were drawn from time 0 to 14 days with extended intervals and analyzed by ELISA using anti-human IgG Fc antibody with horseradish peroxidase (HRP) labeled (KPL) and anti-6×His antibody with HRP labeled (Clontech). Data were normalized by taking maximal concentration at the first time point (30 min).

B1: H12 (protein, listed as Bos taurus)
chain: CVIVHQKTTQQSSCPAGFRDCVACTPGPESCCRSGCDGARRRVGLRYFFDSTSPITTYTYEHHIDAW
modifications: H12
binding to HEK293A cells transfected with NS2-3 ([1]; HEK293A cells transfected with the NS2-3 non-structural proteins of BVDV): binds NS2-3 on cells; also recorded: strongly binds
binding to untransfected cells ([1]; untransfected HEK293A cells): weakly bound

B2: hGCSF: human G-CSF (protein, UniProt P09919 31-207, looked up)
Granulocyte …: TPLGPASSLPQSFLLKCLEQVRKIQGDGAALQEKLVSECATYKLCHPEELVLLGHSLGIPWAPLSSCPSQALQLAGCLSQLHSGLFLYQGLLQALEGISPELGPTLDTLQLDVADFATTIWQQMEELGMAPALQPTQGAMPAFASAFQRRAGGVLVASHLQSFLEVSYRVLRHLAQP
F.I. (AlamarBlue fluorescence at 595 nm, cell viability) (Mouse NFS-60 cells; 0.09145 ng/mL): 1266.554
F.I. (AlamarBlue fluorescence at 595 nm, cell viability) (Mouse NFS-60 cells; 0.27435 ng/mL): 1478.287
F.I. (AlamarBlue fluorescence at 595 nm, cell viability) (Mouse NFS-60 cells; 0.82305 ng/mL): 1752.216
F.I. (AlamarBlue fluorescence at 595 nm, cell viability) (Mouse NFS-60 cells; 2.46914 ng/mL): 2224.028
F.I. (AlamarBlue fluorescence at 595 nm, cell viability) (Mouse NFS-60 cells; 7.40741 ng/mL): 2587.222
F.I. (AlamarBlue fluorescence at 595 nm, cell viability) (Mouse NFS-60 cells; 22.22222 ng/mL): 2751.249
F.I. (AlamarBlue fluorescence at 595 nm, cell viability) (Mouse NFS-60 cells; 66.66667 ng/mL): 2815.37
F.I. (AlamarBlue fluorescence at 595 nm, cell viability) (Mouse NFS-60 cells; 200 ng/mL): 2948.509
Number of CD45RA− CD41− (Human mPB CD34+ cells; 0.05081 ng/mL): 4175
Number of CD45RA− CD41− (Human mPB CD34+ cells; 0.15242 ng/mL): 3651
Number of CD45RA− CD41− (Human mPB CD34+ cells; 0.45725 ng/mL): 3671
Number of CD45RA− CD41− (Human mPB CD34+ cells; 1.37174 ng/mL): 4299
Number of CD45RA− CD41− (Human mPB CD34+ cells; 4.11523 ng/mL): 5900
Number of CD45RA− CD41− (Human mPB CD34+ cells; 12.34568 ng/mL): 7784
Number of CD45RA− CD41− (Human mPB CD34+ cells; 37.03704 ng/mL): 10500
Number of CD45RA− CD41− (Human mPB CD34+ cells; 111.11111 ng/mL): 12200
Number of CD45RA− CD41− (Human mPB CD34+ cells; 333.33333 ng/mL): 14100
Number of CD45RA− CD41− (Human mPB CD34+ cells; 1000 ng/mL): 13900

B3: bGCSF: bovine G-CSF (granulocyte colony-stimulating factor) (protein, listed as Bos taurus)
chain: TPLGPARSLPQSFLLKCLEQVRKIQADGAELQERLCAAHKLCHPEELMLLRHSLGIPQAPLSSCSSQSLQLTSCLNQLHGGLFLYQGLLQALAGISPELAPTLDTLQLDVTDFATNIWLQMEDLGAAPAVQPTQGAMPTFTSAFQRRAGGVLVASQLHRFLELAYRGLRYLAEP
modifications: bGCSF
F.I. (AlamarBlue fluorescence at 595 nm, cell viability) (Mouse NFS-60 cells; 0.09145 ng/mL): 1214
F.I. (AlamarBlue fluorescence at 595 nm, cell viability) (Mouse NFS-60 cells; 0.27435 ng/mL): 1360.925
F.I. (AlamarBlue fluorescence at 595 nm, cell viability) (Mouse NFS-60 cells; 0.82305 ng/mL): 1761
F.I. (AlamarBlue fluorescence at 595 nm, cell viability) (Mouse NFS-60 cells; 2.46914 ng/mL): 2101
F.I. (AlamarBlue fluorescence at 595 nm, cell viability) (Mouse NFS-60 cells; 7.40741 ng/mL): 2405
F.I. (AlamarBlue fluorescence at 595 nm, cell viability) (Mouse NFS-60 cells; 22.22222 ng/mL): 2646
F.I. (AlamarBlue fluorescence at 595 nm, cell viability) (Mouse NFS-60 cells; 66.66667 ng/mL): 2812.098
F.I. (AlamarBlue fluorescence at 595 nm, cell viability) (Mouse NFS-60 cells; 200 ng/mL): 3087.144
Percentage of Neutrophil (mice neutrophils): 16.48
Number of CD45RA− CD41− (Human mPB CD34+ cells; 0.55886 ng/mL): 7354
Number of CD45RA− CD41− (Human mPB CD34+ cells; 1.67657 ng/mL): 9776
Number of CD45RA− CD41− (Human mPB CD34+ cells; 5.02972 ng/mL): 12700
Number of CD45RA− CD41− (Human mPB CD34+ cells; 15.08916 ng/mL): 13200
Number of CD45RA− CD41− (Human mPB CD34+ cells; 45.26749 ng/mL): 13700
Number of CD45RA− CD41− (Human mPB CD34+ cells; 135.80247 ng/mL): 13300
Number of CD45RA− CD41− (Human mPB CD34+ cells; 407.40741 ng/mL): 13700
Number of CD45RA− CD41− (Human mPB CD34+ cells; 1222.22222 ng/mL): 14100
Number of CD45RA− CD41− (Human mPB CD34+ cells; 3666.66667 ng/mL): 13100
Number of CD45RA− CD41− (Human mPB CD34+ cells; 11000 ng/mL): 13800
Percentage (normalized to maximal concentration at the first time point, 30 min) ([2]; 0.5 hour): 100.00%
Percentage (normalized to maximal concentration at the first time point, 30 min) ([2]; 1 hour): 79.52%
Percentage (normalized to maximal concentration at the first time point, 30 min) ([2]; 3 hour): 56.81%
Percentage (normalized to maximal concentration at the first time point, 30 min) ([2]; 6 hour): 14.94%
Percentage (normalized to maximal concentration at the first time point, 30 min) ([2]; 24 hour): 4.08%
Percentage (normalized to maximal concentration at the first time point, 30 min) ([2]; 48 hour): 0.00%
Percentage (normalized to maximal concentration at the first time point, 30 min) ([2]; 72 hour): 0.00%

— patent publication US20140050720A1, “ULTRALONG COMPLEMENTARITY DETERMINING REGIONS AND USES THEREOF” (THE SCRIPPS RESEARCH INSTITUTE, priority 2012, published 2014)
